In experiment [1] the target is T1, Unizyme-tagged human IL-13 (33-146) (human, UniProt P35225 33-146, ALEXA FLUOR 488 or ALEXA FLUOR 647 succinimidyl ester label in the staining and flow cytometry experiments).
T1 construct: range 33-146; The SPR section says only 'Human IL-13'; also called huIL-13; IL-13 antigen; not shown: Unizyme tag
As to the kind of experiment: SPR (Biacore 3000), half-antibody from E. coli periplasmic extract captured by Fab Binder, human IL-13 as analyte, 25 C. For orientation: SPR reads the build-up and loss of mass on a sensor chip optically.

Experiment [2] addresses T2, human VEGF (8-109) (human, UniProt P15692 214-315, ALEXA FLUOR 488 or ALEXA FLUOR 647 succinimidyl ester label in the flow cytometry experiments).
T2 construct: range 8-109; The SPR section says only 'human VEGF'; also called VEGF antigen
T2 sequence (looked up): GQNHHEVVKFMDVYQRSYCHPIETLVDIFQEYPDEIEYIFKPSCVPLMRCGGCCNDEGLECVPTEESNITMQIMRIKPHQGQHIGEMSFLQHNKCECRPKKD
As to the kind of experiment: flow cytometry (SSC against labeled VEGF) of the anti-VEGF spiking experiment, bacterial antibody display; no unstained control is drawn in these panels. A general note: In flow cytometry, cells or beads pass a laser one at a time.
Procedure: For bacterial display, antibodies were expressed in a Lpp deletion (Δlpp) of strain 62A7. […] After 24 hours at 30° C., 1 OD aliquots were harvested and pelleted by centrifugation (4 minutes, 6500 rcf). Cells were resuspended in 100 μL PBS pH 7.4 with 2% BSA and 5 mM EDTA and incubated at 4° C. for 30 minutes. After initial incubation, SYTO® 41 or 9 nucleic acid stain (Molecular Probes, USA) was added to a final dilution of 1:100, and ALEXA⁴⁶⁸- or ALEXA⁶⁴⁷-labeled antigen added to a final concentration of 1-2 μM. Incubation was continued at 4° C. in darkness for 1 hour, at which time MgCl₂ was added to 10-20 mM final concentration. Unbound proteins were removed by washing 3 times with 1 mL volumes of PBS pH 7.4+20 mM MgCl₂. […] The FACS™ gating strategy included cells that were SYTO® dye-positive. Doublet discrimination gates were used to remove doublets and finally antigen-positive cells were sorted.

In general, Kd refers to the free concentration of one partner at which half of the binding sites on the other are occupied at equilibrium, for simple one-to-one binding. Low values mean a tighter complex, high ones a looser complex. A word on the koff: it is a measure of how fast the partners let go of each other. The low end stands for a long-lived complex, the high end for a short-lived complex. The term kon denotes the second-order rate constant of association. A higher kon goes with faster complex formation.

T1 sequence (P35225 33-146, form in doubt): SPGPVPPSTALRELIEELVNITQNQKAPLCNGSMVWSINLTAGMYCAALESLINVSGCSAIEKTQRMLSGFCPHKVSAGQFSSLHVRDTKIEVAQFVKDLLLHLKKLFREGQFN

B1: anti-IL-13 half-antibody WT (antibody, V domains shown)
VH: QVTLRESGPALVKPTQTLTLTCTVSGFSLSAYSVNWIRQPPGKALEWLAMIWGDGKIVYNSALKSRLTISKDTSKNQVVLTMTNMDPVDTATYYCAGDGYYPYAMDNWGQGSLVTVSS
VL: DIVMTQSPDSLSVSLGERATINCRASKSVDSYGNSFMHWYQQKPGQPPKLLIYLASNLESGVPDRFSGSGSGTDFTLTISSLQAEDVAVYYCQQNNEDPRTFGGGTKVEIK
notes: Half-antibody (one heavy and one light chain, knobs-into-holes Fc); Expressed in the E. coli periplasm; for SPR captured from periplasmic extract; also called anti-IL-13 WT; Half-Ab
In experiment [1], B1 displayed a Kd of 0.04 nM, a koff of 5.09e-05 s⁻¹ and a kon of 1.3e+06 M⁻¹ s⁻¹. The binding result in experiment [2] was “no binding”.

B2: anti-IL-13 half-antibody framework variant E6Q (heavy chain) (antibody, name in Kabat numbering, V domains shown)
VH: QVTLRQSGPALVKPTQTLTLTCTVSGFSLSAYSVNWIRQPPGKALEWLAMIWGDGKIVYNSALKSRLTISKDTSKNQVVLTMTNMDPVDTATYYCAGDGYYPYAMDNWGQGSLVTVSS
VL: DIVMTQSPDSLSVSLGERATINCRASKSVDSYGNSFMHWYQQKPGQPPKLLIYLASNLESGVPDRFSGSGSGTDFTLTISSLQAEDVAVYYCQQNNEDPRTFGGGTKVEIK
notes: Half-antibody
In experiment [1], B2 showed a Kd of 0.038 nM, a koff of 4.26e-05 s⁻¹ and an association rate constant (kon) of 1.13e+06 M⁻¹ s⁻¹.

B3: anti-IL-13 half-antibody framework variant M4L (light chain) (antibody, name in Kabat numbering, V domains shown)
VH: QVTLRESGPALVKPTQTLTLTCTVSGFSLSAYSVNWIRQPPGKALEWLAMIWGDGKIVYNSALKSRLTISKDTSKNQVVLTMTNMDPVDTATYYCAGDGYYPYAMDNWGQGSLVTVSS
VL: DIVLTQSPDSLSVSLGERATINCRASKSVDSYGNSFMHWYQQKPGQPPKLLIYLASNLESGVPDRFSGSGSGTDFTLTISSLQAEDVAVYYCQQNNEDPRTFGGGTKVEIK
notes: Half-antibody
On to B3, for which, in experiment [1], binding was characterised by a dissociation constant (Kd) of 0.029 nM, the off-rate constant (koff) amounted to 3.16e-05 s⁻¹ and the kon is 1.11e+06 M⁻¹ s⁻¹.

B4: anti-IL-13 half-antibody framework variant F27L (heavy chain) (antibody, name in Kabat numbering, V domains shown)
VH: QVTLRESGPALVKPTQTLTLTCTVSGLSLSAYSVNWIRQPPGKALEWLAMIWGDGKIVYNSALKSRLTISKDTSKNQVVLTMTNMDPVDTATYYCAGDGYYPYAMDNWGQGSLVTVSS
VL: DIVMTQSPDSLSVSLGERATINCRASKSVDSYGNSFMHWYQQKPGQPPKLLIYLASNLESGVPDRFSGSGSGTDFTLTISSLQAEDVAVYYCQQNNEDPRTFGGGTKVEIK
notes: Half-antibody
In experiment [1], B4 displayed a dissociation constant Kd of 0.034 nM, a koff of 4.43e-05 s⁻¹ and an on-rate (kon) of 1.3e+06 M⁻¹ s⁻¹.

Values taken from patent publication US20180030434A1 (Genentech, published 2018).
